Reference: publication PMC6562043 (Scientific Reports, 2019)

Target: T1, synthesized human Aβ42 peptide (human, UniProt P05067 672-713)
T1 construct: also called Aβ peptide
Assay: ELISA
Conditions: one partner purified

B1: human PrP^C (transgene of TgHuPrP mice) (natural protein)
chain: not shown
- binding relative to mouse PrP^C, corrected for PrP expression: 177 ± 9.5%
